B1: Hammerhead Ribozyme (parent)
chain: ACCGGAUGUGCUUUCCGGUCUGAUGAGUCCGUGAGGACGAAACAG

Variants of: B1
Test: self-cleavage, relative activity (ratio to wild type); higher = more cleavage; co-transcriptional

Variant | self-cleavage
G4U G45U | 0.446
G4U G45C | 0.324
G4U G45A | 0.351
G4U U21C | 0.352
G4U U21A | 0.342
G4U U21G | 0.325
G5A C15G | 1.53
G5A C15A | 1.32
G5A C15U | 1.78
G4U G33A | 0.608
G4U G33C | 0.416
G4U G33U | 0.576
G4U A44C | 0.401
G4U A44G | 0.789
G4U A44U | 0.33
G4C C16A | 1.65
G4C C16G | 1.35
G4C C16U | 1.39
G4C G17A | 0.298
G4C G17U | 0.291
G4C G17C | 0.291
G5A A23C | 0.315
G5A A23U | 0.304
G5A A23G | 0.385

Variant | self-cleavage
G4U G18U | 0.323
G4U G18C | 0.275
G4U G18A | 0.297
G5A U7C | 1.06
G5A U7G | 1.56
G5A U7A | 0.95
G4U A37U | 0.286
G4U A37G | 0.305
G4U A37C | 0.329
G4C U19G | 0.322
G4C U19C | 0.297
G4C U19A | 0.283
G4U C16A | 1.07
G4U C16G | 1.09
G4U C16U | 1.05
G5A G45U | 0.587
G5A G45A | 0.61
G5A G45C | 0.554
G5A C38U | 0.935
G5A C38A | 0.65
G5A C38G | 0.575
G4U G27A | 0.312
G4U G27C | 0.35
G4U G27U | 0.294

Variant | self-cleavage
G5A A6C | 0.483
G5A A6G | 0.82
G5A A6U | 0.696
G4C A44C | 0.422
G4C A44G | 0.805
G4C A44U | 0.34
G4U U28C | 0.266
G4U U28A | 0.234
G4U U28G | 0.308
G4C G5A | 0.365
G4C G5C | 0.327
G4C G5U | 0.418
G5A C20G | 0.286
G5A C20U | 1.01
G5A C20A | 0.415
G4C C43G | 0.315
G4C C43A | 0.285
G4C C43U | 0.298
G4C U21G | 0.239
G4C U21C | 0.363
G4C U21A | 0.309
G4U G5U | 0.359
G4U G5C | 0.352
G4U G5A | 0.284

Variant | self-cleavage
G5A G17C | 0.434
G5A G17A | 0.397
G5A G17U | 0.452
G4C U28G | 0.326
G4C U28A | 0.297
G4C U28C | 0.331
G4C G18A | 0.303
G4C G18C | 0.251
G4C G18U | 0.284
G4C A37G | 0.516
G4C A37U | 0.294
G4C G8U | 0.353
G4C G8A | 0.543
G4C G8C | 0.592
G4C G27U | 0.326
G4C G27C | 0.412
G4C G27A | 0.476
G5A G39C | 0.328
G5A G39A | 0.353
G5A G39U | 0.329
G5A G33A | 1.44
G5A G33C | 1.22
G5A G33U | 1.44
G4U U24C | 0.549

Variant | self-cleavage
G4U U24A | 0.442
G4U U24G | 0.372
G4C G39U | 0.293
G4C G39A | 0.326
G4C G39C | 0.244
G4U G17C | 0.34
G4U G17A | 0.316
G4U G17U | 0.294
G4C G45C | 0.4
G4C G45A | 0.355
G4C G45U | 0.4
G5A G10U | 1.73
G5A G10A | 1.54
G5A G10C | 1.16
G4U U32G | 0.316
G4U U32A | 0.507
G4U U32C | 0.487
G4C C29A | 0.317
G4C C29U | 0.567
G4C C29G | 0.347
G4C A40G | 0.243
G4C A40U | 0.255
G4C A40C | 0.352
G4U U13G | 0.725

Variant | self-cleavage
G4U U13C | 0.634
G4U U13A | 1.14
G4C C30G | 0.371
G4C C30A | 0.594
G4C C30U | 0.703
G4U U7G | 0.381
G4U U7C | 0.361
G4U U7A | 0.432
G4U A23U | 0.333
G4U A23G | 0.303
G4U A23C | 0.257
G5A C43G | 0.312
G5A C43U | 0.467
G5A C43A | 0.34
G4U C15A | 0.425
G4U C15G | 0.436
G4U C15U | 0.523
G5A | 1.32
G4U G31A | 0.612
G4U G31U | 0.75
G4U G31C | 0.56
G4C A42U | 0.297
G4C A42C | 0.296
G4C A42G | 0.359

Variant | self-cleavage
G4U A40U | 0.297
G4U A40G | 0.303
G4U A40C | 0.224
G4U A6G | 0.327
G4U A6C | 0.282
G4U A6U | 0.387
G5A G35U | 0.848
G5A G35C | 0.66
G5A G35A | 0.642
G5A C11A | 1.43
G5A C11G | 1.27
G5A C11U | 0.804
G5A A40U | 0.409
G5A A40C | 0.476
G5A A40G | 0.379
G5A C29G | 0.464
G5A C29A | 0.445
G5A C29U | 0.95
G5A G18C | 0.386
G5A G18U | 0.371
G5A G18A | 0.47
G4U U19A | 0.304
G4U U19G | 0.343
G4U U19C | 0.345

Variant | self-cleavage
G5A G36C | 0.384
G5A G36U | 0.41
G5A G36A | 0.667
G4C G31U | 0.748
G4C G31A | 0.939
G4C G31C | 0.768
G5A C30A | 1.08
G5A C30G | 0.597
G5A C30U | 1.43
G4C U24G | 0.599
G4C U24A | 0.777
G4C U24C | 0.631
G4C C11A | 0.67
G4C C11G | 0.767
G4C C11U | 0.331
G4C U32C | 0.736
G4C U32G | 0.324
G4C U32A | 0.743
G4C G35U | 0.426
G4C G35C | 0.341
G4C G35A | 0.297
G4C U14G | 0.733
G4C U14C | 0.475
G4C U14A | 0.512

Variant | self-cleavage
G5A U12G | 1.31
G5A U12A | 1.22
G5A U12C | 1.07
G4U | 0.515
G4C C15U | 0.557
G4C C15G | 0.929
G4C C15A | 0.524
G4U G22A | 0.297
G4U G22C | 0.345
G4U G22U | 0.296
G5A G27A | 0.776
G5A G27U | 0.538
G5A G27C | 0.61
G4U C20A | 0.294
G4U C20G | 0.272
G4U C20U | 0.364
G4U C43G | 0.295
G4U C43A | 0.272
G4U C43U | 0.261
G4U G8U | 0.933
G4U G8A | 0.47
G4U G8C | 0.377
G4C G36C | 0.247
G4C G36U | 0.281

Variant | self-cleavage
G4C G36A | 0.282
G4U C29U | 0.413
G4U C29A | 0.265
G4U C29G | 0.358
G4U C38G | 0.323
G4U C38U | 0.315
G4U C38A | 0.289
G5A U9A | 1.27
G5A U9C | 1.37
G5A U9G | 0.88
G4U G39U | 0.29
G4U G39C | 0.266
G4U G39A | 0.263
G4C U9A | 0.613
G4C U9G | 0.573
G4C U9C | 0.704
G4U U9A | 0.395
G4U U9C | 0.413
G4U U9G | 0.368
G4C C20G | 0.266
G4C C20U | 0.441
G4C C20A | 0.244
G5A A44U | 0.532
G5A A44C | 0.662

Variant | self-cleavage
G5A A44G | 1.29
G4U G10U | 0.558
G4U G10C | 0.469
G4U G10A | 0.588
G4U C30A | 0.4
G4U C30U | 0.558
G4U C30G | 0.305
G4C A41G | 0.255
G4C A41U | 0.267
G4C A41C | 0.316
G5A A26U | 0.66
G5A A26C | 0.464
G5A A26G | 0.398
G4C G25C | 0.289
G4C G25A | 0.307
G4C G25U | 0.289
G4C G33C | 0.742
G4C G33U | 0.837
G4C G33A | 0.879
G5A G31A | 1.65
G5A G31C | 1.32
G5A G31U | 1.61
G4U G36C | 0.313
G4U G36U | 0.267

Variant | self-cleavage
G4U G36A | 0.321
G4C U12A | 0.766
G4C U12G | 0.599
G4C U12C | 0.513
G5A G8U | 1.33
G5A G8C | 0.954
G5A G8A | 1.24
G4C G22U | 0.238
G4C G22A | 0.297
G4C G22C | 0.241
G4U U14A | 0.469
G4U U14G | 0.722
G4U U14C | 0.416
G4C U7A | 1.03
G4C U7C | 0.353
G4C U7G | 0.768
G4C U13G | 0.962
G4C U13C | 0.856
G4C U13A | 1.04
G5A A37C | 0.542
G5A A37U | 0.603
G5A A37G | 0.773
G4U G35U | 0.388
G4U G35C | 0.326

Variant | self-cleavage
G4U G35A | 0.337
G4U A42C | 0.265
G4U A42U | 0.307
G4U A42G | 0.336
G5A A34U | 1.06
G5A A34C | 1.1
G5A A34G | 1.2
G4U G25C | 0.339
G4U G25U | 0.253
G4U G25A | 0.25
G4U A34U | 0.43
G4U A34G | 0.452
G4U A34C | 0.296
G5A G22A | 0.322
G5A G22U | 0.325
G5A G22C | 0.315
G5A C16U | 1.54
G5A C16A | 1.56
G5A C16G | 0.931
G4C C38A | 0.478
G4C C38G | 0.346
G4C C38U | 0.643
G5A A42U | 0.353
G5A A42C | 0.359

Variant | self-cleavage
G5A A42G | 0.387
G4U A26U | 0.378
G4U A26G | 0.274
G4U A26C | 0.35
G5A G25A | 0.327
G5A G25C | 0.268
G5A G25U | 0.354
G4U A41G | 0.263
G4U A41C | 0.276
G4U A41U | 0.308
G4U U12G | 0.564
G4U U12A | 0.547
G4U U12C | 0.496
G5A A41G | 0.327
G5A A41U | 0.327
G5A A41C | 0.325
G4U C11U | 0.319
G4U C11A | 0.502
G4U C11G | 0.52
G4C G10A | 0.662
G4C G10U | 0.722
G4C G10C | 0.436

From the RNAGym collection of RNA variant scans (doi:10.7554/elife.80360)
